Test results as given in publication PMC4191604 (Journal of Medicinal Chemistry, 2014).
Where a chain is given by its changes, count along the chain named.

Experiments:
Test in all cases: SPR
[1] = target: T1, GBP1 mutant K51A (human, UniProt P32455 1-592, K51A)
T1 sequence (looked up): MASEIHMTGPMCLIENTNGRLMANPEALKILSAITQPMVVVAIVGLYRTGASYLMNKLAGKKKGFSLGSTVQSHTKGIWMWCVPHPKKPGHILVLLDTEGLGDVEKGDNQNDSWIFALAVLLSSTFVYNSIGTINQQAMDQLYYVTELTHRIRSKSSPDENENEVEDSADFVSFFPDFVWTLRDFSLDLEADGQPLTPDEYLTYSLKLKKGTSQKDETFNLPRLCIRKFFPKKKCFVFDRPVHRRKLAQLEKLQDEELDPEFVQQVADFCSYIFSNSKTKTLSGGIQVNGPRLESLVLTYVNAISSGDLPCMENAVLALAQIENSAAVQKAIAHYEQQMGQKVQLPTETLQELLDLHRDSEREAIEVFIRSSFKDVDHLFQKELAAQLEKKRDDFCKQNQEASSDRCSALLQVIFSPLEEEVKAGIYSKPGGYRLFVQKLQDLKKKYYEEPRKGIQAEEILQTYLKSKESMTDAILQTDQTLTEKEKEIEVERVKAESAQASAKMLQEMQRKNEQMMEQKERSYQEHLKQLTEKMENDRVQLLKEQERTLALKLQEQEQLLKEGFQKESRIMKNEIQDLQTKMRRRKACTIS

[2] = target: T2, GBP1 mutant R227A/K228A (human, UniProt P32455 1-592, R227A | K228A)
T2 sequence (looked up): T1 sequence (looked up) with A51K, R227A, K228A

[3] = target: T3, GBP1 GTPase (human GBP1, recombinant wild type) (human, UniProt P32455 1-592)
T3 sequence (looked up): T1 sequence (looked up) with A51K

[4] = target: T4, GBP1 mutant R227E/K228E (human, UniProt P32455 1-592, R227E | K228E)
T4 sequence (looked up): T1 sequence (looked up) with A51K, R227E, K228E

Kd [1]: 26 ± 11 nM | Kd [2]: 61 ± 4 nM | Kd [3]: 30 ± 10 nM | Kd [4]: > 10000 nM
B1: PIM1 (recombinant) (enzyme)
chain: not shown
